Results reported in patent US20090098568A1.

Target: cyclophilin A, N-terminally His- and FLAG-tagged fusion protein (UniProt P62937)
Assay: SPR (Biacore S51); 1 uM cyclosporin A injected for 1.5 minutes over Cyph immobilized (approx. 3,400 RU) on an NTA sensor chip

Sequence of UniProt P62937 (P62937 other isoform, or with tags, fused parts or gaps limits assumed): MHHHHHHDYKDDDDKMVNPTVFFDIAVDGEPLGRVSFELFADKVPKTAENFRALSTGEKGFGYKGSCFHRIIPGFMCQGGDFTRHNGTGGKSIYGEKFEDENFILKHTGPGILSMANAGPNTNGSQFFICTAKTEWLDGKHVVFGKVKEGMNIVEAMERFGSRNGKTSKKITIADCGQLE

## Cyclosporin A (peptide)
  response (RU): 43 RU
